Laboratory results taken from patent US20260151494A1 (ARO BIOTHERAPEUTICS, published 2026).

How the values were obtained:
[1] = target: T1, human CD71 extracellular domain (human, UniProt P02786 89-760); test: primary ELISA; further: test concentration or dose not given here
T1 construct: also called hCD71; human CD71-ECD

[2] = target: T2, apical domain of cynomolgus CD71 (cynomolgus, UniProt A0A2K5X958 189-383); test: primary ELISA; further: test concentration or dose not given here
T2 construct: domain: apical domain; also called Cyno apical domain
T2 sequence (A0A2K5X958 entry or part of it): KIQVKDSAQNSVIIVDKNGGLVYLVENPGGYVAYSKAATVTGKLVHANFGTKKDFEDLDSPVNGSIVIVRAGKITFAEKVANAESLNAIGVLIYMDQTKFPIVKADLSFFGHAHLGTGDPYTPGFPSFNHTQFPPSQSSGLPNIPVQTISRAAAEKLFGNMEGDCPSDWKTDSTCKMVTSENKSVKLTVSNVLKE

[3] = target: T1, human CD71 extracellular domain; test: primary ELISA, signal ratio to HSA
[4] = target: T2, apical domain of cynomolgus CD71; test: primary ELISA, signal ratio to HSA

T1 sequence (P02786 89-760): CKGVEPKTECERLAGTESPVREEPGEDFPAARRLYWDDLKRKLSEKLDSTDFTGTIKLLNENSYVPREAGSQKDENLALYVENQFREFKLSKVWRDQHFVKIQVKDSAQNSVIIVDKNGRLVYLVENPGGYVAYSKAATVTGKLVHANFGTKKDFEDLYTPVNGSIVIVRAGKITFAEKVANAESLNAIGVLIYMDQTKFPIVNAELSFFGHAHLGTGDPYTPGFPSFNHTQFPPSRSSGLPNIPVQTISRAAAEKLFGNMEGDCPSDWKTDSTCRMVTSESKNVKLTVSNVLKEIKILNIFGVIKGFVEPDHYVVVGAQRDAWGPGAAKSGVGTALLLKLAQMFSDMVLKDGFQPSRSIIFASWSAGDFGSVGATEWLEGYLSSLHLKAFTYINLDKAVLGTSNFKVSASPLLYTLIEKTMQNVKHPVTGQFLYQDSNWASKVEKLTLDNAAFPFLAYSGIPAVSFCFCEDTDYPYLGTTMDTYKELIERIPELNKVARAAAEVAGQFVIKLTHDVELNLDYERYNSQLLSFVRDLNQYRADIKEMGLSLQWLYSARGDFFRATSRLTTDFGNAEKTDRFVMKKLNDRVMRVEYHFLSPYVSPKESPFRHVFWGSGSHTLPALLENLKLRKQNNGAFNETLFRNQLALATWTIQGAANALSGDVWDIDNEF

Row | Binder | RLU [1] | RLU [2] | hCD71:HSA [3] | Cyno apical domain:HSA [4]
1 | CD71-binding FN3 domain of SEQ ID NO: 183 (designed binder) MSLPAPKNLVISRVTEDSARLSWTAPDAAFDSFEIVYAEPVRFGEAIVLTVPGSERSYDLTGLKPGTEYWVQIGGVKGGEWSSPLSAIFTT | 3.19e+06 RLU | 4.47e+06 RLU | 108 | 15
2 | CD71-binding FN3 domain of SEQ ID NO: 173 (designed binder) MSLPAPKNLVVSRVTEDSARLSWTAPDAAFDSFEIAYQELSLWGEAIVLTVPGSERSYDLTGLKPGTEYYVHIGGVKGGIWSSPLVAHFTT | 4.41e+06 RLU | 5.65e+06 RLU | 234 | 300
3 | CD71-binding FN3 domain of SEQ ID NO: 175 (designed binder) MSLPAPKNLVVSRVTEDSARLSWTAPDAAFDSFEIAYQELSLWGEAIVLTVPGSERSYDLTGLKPGTEYVVFIGGVKGGVWSVPLSAIFTT | 1.01e+06 RLU | 4.29e+06 RLU | 21 | 91
4 | CD71-binding FN3 domain of SEQ ID NO: 177 (designed binder) MSLPAPKNLVVSRVTEDSARLSWTAPDAAFDSFEIGYFENLYLGEAIVLTVPGSERSYDLTSLKPGTEYWVQIGGVKGGNWSAPLSAIFTT | 3.22e+06 RLU | 4.54e+06 RLU | 110 | 156
5 | CD71-binding FN3 domain of SEQ ID NO: 181 (designed binder) MSLPAPKNLVVSRVTEDSARLSWTAPDAAFDSFEIGYFENDYFGEAIVLTVPGSERSYDLTGLKPGTEYWVQIGGVKGGNWSAPLSAIFTT | 2.84e+06 RLU | 4.61e+06 RLU | 133 | 216

The next lines start with the values.

Row | RLU [1] | RLU [2] | hCD71:HSA [3] | Cyno apical domain:HSA [4] | Binder
6 | 4.4e+06 RLU | 4.93e+06 RLU | 109 | 122 | CD71-binding FN3 domain of SEQ ID NO: 171 (designed binder) MSLPAPKNLVVSRVTEDSARLSWTAPDAAFDSFEIGYFENLYLGEAIVLTVPGSERSYDLTGLKPGTEYWVQIGGVKGGEWSSPLSAIFTT
7 | 3.61e+06 RLU | 4.71e+06 RLU | 127 | 165 | CD71-binding FN3 domain of SEQ ID NO: 174 (designed binder) MSLPAPKNLVVSRVTEDSARLSWTAPNAAFDSFEIGYFENLYLGEAIVLTVPGSERSYDLTGLKPGTEYWVQIGGVKGGNWSAPLSAIFTT
8 | 3.63e+06 RLU | 4.75e+06 RLU | 117 | 153 | CD71-binding FN3 domain of SEQ ID NO: 186 (designed binder) MSLPAPKNLVVSRVTEDSARLSWTAPDAAFDSFEIGYFENPYLGEAIVLTVPGSERSYDLTGLKPGTEYWVQIGGVKGGNWSAPLSAIFTT
9 | 7.01e+06 RLU | 6.06e+06 RLU | 172 | 149 | CD71-binding FN3 domain of SEQ ID NO: 176 (designed binder) MSLPAPKNLVVSRVTEDSARLSWTAPDAAFDSFFIGYLEPQPPGEAIHLFVPGSERSYDLTGLKPGTEYWVQIGGVKGGNWSAPLSAIFTT
10 | 3.81e+06 RLU | 4.96e+06 RLU | 101 | 131 | CD71-binding FN3 domain of SEQ ID NO: 182 (designed binder) MSLPAPENLVVSRVTEDSARLSWTAPDAAFDSFEIGYWENAYKGEAIVLTVPGSERSYDLTGLKPGTEYVVFIGGVKGGVWSVPLSVIFTT
11 | 4.34e+06 RLU | 5.23e+06 RLU | 31 | 37 | CD71-binding FN3 domain of SEQ ID NO: 172 (designed binder) MSRPAPKNLVVSRVTEDSARLSWTAPGAAFDSFEIAYFERTWFGEAIVLTVPSSERSYDLTGLKPGTEYWVQIGGVKGGDWSKPLSAIFTT
12 | 3.74e+06 RLU | 5.08e+06 RLU | 74 | 101 | CD71-binding FN3 domain of SEQ ID NO: 184 (designed binder) MSLPAPKNLVVSRVTEDSARPSWTAPDAAFDSFEIAYFERTWFGEAIVLTVPGSERSYDLTGLKPGTEYWVQIGGVKGGDWSKPLSAIFTT
